Consider ten molecules from patent US20210347873A1 (SHANGHAI PHARMAEXPLORER, published 2021).

Residue numbers refer to the chain shown, from its start.

Sequences and labels used below:
B1: 8E7D9C7F5 (antibody, V domains shown)
VH: QVQLQQSGVELARPGASVKLSCKASGYTFTSYGISWVKQRTGQALEWIGEIYPRSGNTYYNEKFKGKATLTADKSSSTAYMELRSLTSEDSAVYFCARSGPITTLVATDYGMDYWGQGTSVTVSS
VL: DIVLTQSPASLAVSLGQRATISCRASKSVSTSSYSYMHWYQQKPGQPPKLLIKFASNLESGVPARFSGSGSGTDFTLNIHPVEEEDAATYYCQHSREFPYTFGGGTKLEIK
notes: Mouse hybridoma monoclonal antibody purified on Protein G
B2: 111D10D6G3 (antibody, V domains shown)
VH: QVQLQQPGAELVKPGASVKMSCKASGYTFTRHWITWVKQRPGQGLEWIGDIFPGSGSINYNEKFKSEATLTVEKSSSTAYMQLSSLTSEDSAVYYCARGDVDVWGTGTTVTVSS
VL: DIQMTQSPSSLSASLGERVSLTCRASQEIRGYLSWLQQKPNGTIKRLIYAASTLDSGVPKRFSATRSGSDFSLTISSLESEDFADYYCLQYASYPFTFGSGTKLEIK
notes: as for B1
B3: 97A3C2H4 (antibody, V domains shown)
VH: EVKLVESGGGLVQPGGSLKLSCAASGFTFSTYTMSWVRQTPEKRLEWVAYISYGGGSTSYPDTVKGRFTISRDNAKNTLYLQMSSLKSEDTAIYYCTRHVTVVENSMDYWGQGTSVTVSS
VL: DILLTQSPDILSVSPGERVSFSCRASQSIGTSIHWYQQRTNGSPRLLIKYVSESFSGTPSRFSGSGSGTAFTLTINSVESEDIADYYCQQTHSWPWTFGGGTKLEIK
notes: as for B1
B4: L1D12 (antibody, V domains shown)
VH: QVQLVQSGGGLVQPGGSLRLSCAASGFTVSSNYMSWVRQAPGKGLEWVSVIYSGGSTYYADSVKGRFTISRDNSKNTLYLQMNSLRAEDTAVYYCARGFHDILTGYGMDVWGQGTTVTVSS
VL: SSELTQDPAVSVALGQTVRITCQGDSLRNYYAGWYQQKPGQAPVLVIYGKNNRPSGIPDRFSGSSSGNTASLTITGTQAEDEADYYCSSRDNSGTHLVEFGGGTKLTVL
notes: From a human naive scFv phage library; also called human BLyS antibody L1D12; LID12
B5: 2-1G11 (antibody, V domains shown)
VH: EVQLVESRGGVVQPGRSLRLSCAASGFTFSSYGMHWVRQAPGKGLEWVAVISYDGSNKYYADSVKGRFTISRDNSKNTLYLQMNSLRAEDAAVYYCARDRVDILTGYSIYGMDVWGQGTTVTVSS
VL: EIVMTQSPATLSLSPGERATLSCRASQSVSSYLAWYQQKPGQAPRLLIYDASKRATGIPARFSGSGSGTDFTLTISSLEPEDFAVYYCQQRSNWPLTFGGGTKVEIK
notes: From a human naive scFv phage library; also called human BLyS antibody 2-1G11
B6: L9G7 (antibody, V domains shown)
VH: QIQLVQSGAEVKKPGASVKVSCKASGYTFTSYGISWVRQAPGQGLEWMGWISAYNGNTNYAQKLQGRVTMTTDTSTSTAYMELRSLRSDDTAVYYCARTYYDILTGYYYYGMDVWGQGTTVTVSS
VL: B5 VL with M4L, A9G, A25T, S30D, S31T, K53N
notes: From a human naive scFv phage library; also called human BLyS antibody L9G7
B7: L1D12 (antibody, human IgG1, V domains shown)
VH: B4 VH
VL: B4 VL
notes: also called LID12
B8: L9G7 (antibody, human IgG1, V domains shown)
VH: B6 VH
VL: B5 VL with M4L, A9G, A25T, S30D, S31T, K53N
B9: 111D10D6G3 (antibody, V domains shown)
VH: B2 VH
VL: B2 VL
notes: Mouse hybridoma antibody purified on Protein G
B10: 97A3C2H4 (antibody, V domains shown)
VH: B3 VH
VL: B3 VL
notes: as for B9

For one assay, the target named is T1, biotinylated hBLyS-ECD (human, UniProt Q9Y275 134-285, biotinylated with Biotin-X-X-NHS (molar ratio 7:1); sites not stated).
T1 construct: also called biotinylated immunogen; BLyS protein
T1 sequence (Q9Y275 134-285): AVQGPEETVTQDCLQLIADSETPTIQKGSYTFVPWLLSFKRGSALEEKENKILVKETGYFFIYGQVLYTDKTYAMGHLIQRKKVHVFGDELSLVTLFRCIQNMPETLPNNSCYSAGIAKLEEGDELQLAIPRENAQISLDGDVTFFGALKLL
Put plainly: blocking ELISA: biotinylated hBLyS-ECD on coated BAFF R, antibody 0.16 nM. The procedure:
(§1) BAFF R (purchased from R & D Systems) was aliquoted into 96-well ELISA plate at 50 ng per well, and the plate was sealed with plastic film and incubated overnight at 4° C. On the next day the plate was washed four times with the plate washing buffer [PBS buffer containing 0.05% (v/v) Tween20] and added with blocking solution [PBS buffer containing 0.05% (v/v) Tween20 and 1% (w/w) BSA], then blocked for 1 hour at room temperature. The blocking solution was removed and 50 μL per well of the lead antibodies prepared in Embodiment 1 and 2 were added followed by the addition of 50 μL per well of the biotinylated hBLyS-ECD prepared in Embodiment 2. After incubation for 1 hour at 37° C., the plate was washed four times with the plate washing buffer [PBS buffer containing 0.05% (v/v) Tween20]. 100 μL per well of HRP-labeled (horseradish peroxidase) avidin (purchased from Sigma) was added and incubated at 37° C. for 1 hour. The plate was then washed four times with the plate washing buffer [PBS buffer containing 0.05% (v/v) Tween20]. 100 μL of TMB substrate was aliquoted into each well and after incubation for 5 minutes at room temperature, then 100 μL of stop solution (1.0 N HCl) was aliquoted into each well. A₄₅₀ₙₘ values were read with an ELISA plate reader (SpectraMax 384plus, Molecular Device) and the results were shown in FIGS. 9A-9B and Table 15. It was shown in Table 15 that the binding of BLyS protein to its receptor BAFF R could be blocked by the BLyS antibody.
A general note: An ELISA detects its analyte on a solid surface through an enzyme-linked reagent.
With B1, the OD450 nm worked out at 0.61 OD450 nm.
As to B2, the OD450 nm turned out to be 0.911 OD450 nm.
Still for that read-out and setting: to B3 belongs 0.816 OD450 nm.

Another assay concerns the target T1, biotinylated hBLyS-ECD. Put plainly: blocking ELISA: biotinylated hBLyS-ECD on coated BAFF R, antibody 100 nM. The procedure: as §1
For B1, the OD450 nm was found to be 0.11 OD450 nm.
Regarding B2, the OD450 nm came out at 0.605 OD450 nm.
As to B3, the OD450 nm came to 0.107 OD450 nm.

A further assay has as its target T2, hBLyS-ECD (His-tagged extracellular domain of human BLyS protein, Ala134-Leu285) (human, UniProt Q9Y275 134-285).
T2 construct: Expressed in HEK293, purified on Ni column; also called immunogen
The assay can be described thus: SPR (Biacore X100), antibody captured by anti-human Fc on CM5, hBLyS-ECD injected. The procedure:
Affinity constants were determined using a Biacore X100 instrument (purchased from GE Healthcare). Detailed operations and methods referred to the instrument manuals and detailed methods provided by manufacturers, specifically: determining affinity constant using a CM5 chip (Sensor Chip CM5, purchased from GE Healthcare). […] Then 1 M ethanolamine was injected in chip to block the remaining activation sites. After the antibody to be tested (i.e., the human BLyS antibody prepared by Embodiment 2) was captured by chip, 7 different gradient of immunogen dilutions (i.e., hBLyS-ECD) prepared by Embodiment 1 were injected and the binding and dissociation of antigen with antibody was detected by a Biacore instrument. The dissociation constant and binding constant were then fitted by Biacore X100 Evaluation Software 2.0, while the affinity constant was the ratio of dissociation constant to binding constant.
(In general: Surface plasmon resonance follows binding to a sensor surface in real time, without labels.)
As usually defined, the Kd is the equilibrium constant for the complex coming apart. Higher therefore signals lower affinity. As a reminder, the koff is a measure of how fast the partners let go of each other. Read a low koff as a long-lived complex. By kon is commonly meant the second-order rate constant of association. In turn, B4 showed a Kd of 2.42 nM, a koff of 0.00136 s⁻¹ and a kon of 561000 M⁻¹ s⁻¹.
In the case of B5, binding was characterised by a dissociation constant (Kd) of 0.637 nM, the koff worked out at 0.000946 s⁻¹ and the kon was determined as 1.48e+06 M⁻¹ s⁻¹.
Regarding B6, binding was characterised by a dissociation constant (Kd) of 0.525 nM, the koff turned out to be 0.000244 s⁻¹ and the kon worked out at 465000 M⁻¹ s⁻¹.

The target in the next assay is T3, biotinylated hBLyS-ECD (human, UniProt Q9Y275 134-285, biotinylated with Biotin-X-X-NHS (molar ratio 7:1), sites not stated).
T3 construct: The hBLyS-ECD of Embodiment 1 after biotinylation (Embodiment 2); also called biotinylated immunogen; BLyS protein; not shown: His tag of the pCPC vector
T3 sequence (Q9Y275 134-285): as above
Put plainly: ELISA, biotinylated hBLyS-ECD captured on streptavidin; antibody 66.7 nM. On the procedure: (§2) Streptavidin was first diluted to a final concentration of 1.0 μg/mL with PBS, and then 50 μL of diluted streptavidin per well was aliquoted into 96-well ELISA plate, which was subsequently sealed with plastic film and incubated at 4° C. overnight. On the next day the plate was washed four times with the plate washing buffer [PBS buffer containing 0.05% (v/v) Tween20] and added with the blocking solution [PBS buffer containing 0.05% (v/v) Tween20 and 1% (w/w) BSA] and blocked for 2 hours at 37° C. The blocking solution was removed, the biotinylated hBLyS-ECD prepared in Embodiment 2 was diluted with PBS to a final concentration of 50 ng/mL and then aliquoted into the 96-well ELISA plate at 50 μL per well and incubated for 1 hour at 37° C. After rinsing the plate four times with the plate washing buffer [PBS buffer containing 0.05% (v/v) Tween20], 100 μl of the purified lead antibody harvested in Embodiment 1 and 2 was pipetted into each well. After incubation for 1 hour at 37° C., the plate was rinsed four times with the plate washing buffer [PBS buffer containing 0.05% (v/v) Tween20]. HRP-labeled (horseradish peroxidase) secondary antibody (purchased from Sigma) was added in and incubated at 37° C. for 1 hour. The plate was then rinsed four times with the plate washing buffer [PBS buffer containing 0.05% (v/v) Tween20]. 100 μL of TMB substrate was aliquoted into each well and after incubation for 5 minutes at room temperature, 100 μL of stop solution (1.0 N HCl) was aliquoted into each well. A₄₅₀ₙₘ values were read via an ELISA plate reader (SpectraMax M5e purchased from Molecular Devices) and the results were shown in FIGS. 5A-5B and Table 10.
Turning to B7, the OD450 nm is 1.75.
With B8, the OD450 nm turned out to be 1.81.
As to B9, the OD450 nm was 1.94.
On the same count and under the same terms, the same measure for B10: 2.98.

In another assay the target is T3, biotinylated hBLyS-ECD. The assay can be described thus: ELISA, biotinylated hBLyS-ECD captured on streptavidin; antibody 0 nM (blank). The procedure: as §2
Turning to B7, the OD450 nm worked out at 0.11.
For the molecule B8, the OD450 nm was 0.071.
Turning to B9, the OD450 nm was determined as 0.0617.
For B10, the OD450 nm was determined as 0.0603.

In a further assay the target is T1, biotinylated hBLyS-ECD. The assay can be described thus: blocking ELISA: biotinylated hBLyS-ECD on coated BAFF R, antibody 20 nM. The procedure:
as §1
For the molecule B1, the OD450 nm was 0.133 OD450 nm.
Take B2: the OD450 nm was found to be 0.616 OD450 nm.
Take B3: the OD450 nm came out at 0.125 OD450 nm.

The target in a further assay is T3, biotinylated hBLyS-ECD. The assay can be described thus: ELISA, biotinylated hBLyS-ECD captured on streptavidin; antibody 2.67 nM. On the procedure:
as §2
For the molecule B7, the OD450 nm worked out at 1.65.
Still for that read-out and setting: to B8 belongs 1.71.
B9: the OD450 nm turned out to be 1.78.
B10: the OD450 nm worked out at 2.75.
